Assay results from the RNAGym collection of RNA variant scans (doi:10.1073/pnas.2313332121).
Fewer inactive variants are shown than the library holds.

B1: TPR 5TU (parent)
chain: GGAUCUUCUCGAUCUAACAAAAAAGACAAAUCUGCCACAAAGCUUGAGAGCAUCUUCGGAUGCAGAGGCGGCAGCCUUCGGUGGCGCGAUAGCGCCAACGUUCUCAACUAUGACACGCAAAACGCGUGCUCCGUUGAAUGGAGUUUAUCAUG

Variants of: B1
Assay: polymerase ribozyme fitness, log enrichment relative to wild type (log ratio); higher = more active; in vitro selection for triplet polymerase activity
Method in brief: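 Each subunit of a heterodimeric triplet polymerase ribozyme was represented by a PCR-built, transcribed mutant library that underwent triplicate single-round in vitro selection with frozen incubation at −7 °C. Extended constructs were recovered by gel excision, streptavidin-bead capture and RT-PCR, and Illumina sequencing of input and output libraries kept genotypes with ≥10 input reads and ≥1 read per output. Fitness is the logarithm of genotype enrichment relative to wild-type enrichment, from inverse-variance-weighted replicate averages, with a logarithm base of 2.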

Going from GGAUCUUCUCGAUCUAACAAAAAAGACAAAUCUGCCACAAAGCUUGAGCGCAUCUUCGGAUGCAGAGGCGGCAGCCUUCGGUGGCGCGAUCGCGCCAACGUUCUCAACUAUGACACGCAAAACGCGUGCUCCGUUGAAUGGAGUUUAUCAUG [A49C A91C] to GGAUCUUCUCGAUCUAACAAAAAAGACAAAUCUGCCACAAAGCUUGAUAGCAUCUUCGGAUGCAGAGGCGGCAGCCUUCGGUGGCGCGAUAGCGCCAACGUUCUCAACUAUGACACGCAAAACGCGUGCUCCGUUGAAUGGAGUUUACCAUG [G48U U148C], the “polymerase ribozyme fitness (log ratio)” value rises from ≤ -4.2 to -3.36.

Going from GGAUCUUCUCGAUCUAACAAAAAAGACAAAUCUGCCACAAAGCUUGACAGCAUCUUCGGAUGCAGAGGCGGCAGCCUUCGGUGACGCGAUAGCGCCAACGUUCUCAACUAUGACACGCAAAACGCGUGCUCCGUUGAAUGGAAUUUAUCAUG [G48C G84A G143A] to GGAUCUUCUCGAUCUAACAAAAAAGACAAAUCUGCCACAAAGCUUGAUAGCAUCUUCGGAUGCAGAGGCGGCAGCCUUCGGUGGAGCGAUAGCGCCAACGUUCUCAACUAUGACACGCAAAACGCGUGCUCCGUUGAAUGGAGCUUAUCAUG [G48U C85A U144C], the “polymerase ribozyme fitness (log ratio)” value rises from -2.38 to -2.1.

GGAUCUUCUCGAUCUAACAAAAAAGACAAAUCUGCCACAAAGCUUGAUAGCAUCUUCGGAUGCAGAGGCGGCAGCCUUCGGUGGCGCGAUAGCGCCAACGUUCUCAACUAUGACACGCAAAACGCGUGCUCAGUUGAAGGGAGUUUAUCAUG [G48U C132A U139G] and GGAUCUUCUCGAUCUAACAAAAAAGACAAAUCUGCCACAAAGCUUGAUAGCAUCUUCGGAUGCAGAGGCGGCAGCCUUCGGUGGCCCGAUAGCGCCAACGUUCUCAACUAUGACACGCAAAACGCGUGCUCCGUUGAAUGGAGUUUAUCAUG [G48U G86C] are the same in “polymerase ribozyme fitness (log ratio)” value: -3.31 for the first, -3.31 for the second.

GGAUCUUCUCGAUCUAACAAAAAAGACAAAUCUGCCACAAAGCUUGAGCGCAUCUUCGGGUGCAGAGGCGGCAGCCUUCGGUGGCGCGAUAGCGCCAACGUUCUCAACUAUGACACGCAAAACGCGUGCUCCGUUGAAUGGAGUUUAUCAUG [A49C A60G] and GGAUCUUCUCGAUCUAACAAAAAAGACAAAUCUGCCACAAAGCUUGAGCGCAUCUUCGGAUGCAGAGGCGGCAGCCUUCGGUGGCGCGAUAGCGCCAACGUUCUCUACUAUGACACGCAAAACGCGUGCUCCGUUGAAUGGAGUUUAUCAUG [A49C A106U] are within 0.2 log units of each other in “polymerase ribozyme fitness (log ratio)” value: -3.61 for the first, -3.68 for the second.

Going from GGAUCUUCUCGAUCUAACAAAAAAGACAAAUCUGCCACAAAGCUUGACAGCAUCUUCGGAUGCAGAGGCGGCAGCCUUCGGUGGCACGAUAGCGCCAACGUUCUCAACUAUGACACGCAAAACGCGUGCUCCGUUGAAUGCAGUUUAGCAUA [G48C G86A G141C U148G G152A] to GGAUCUUCUCGAUCUAACAAAAAAGACAAAUCUGCCACAAAGCUUGAUAGCAUCGUCGGAUGCAGAGGCGGCAGCCUUCGGUGGCGCGAUAGCGCCAACGUUCUCAACUAUGACACGCAAAACGCGUGCUCCGUUGAAUGGAGUUUAUCAUG [G48U U55G], the “polymerase ribozyme fitness (log ratio)” value rises from -4.03 to -0.894.

First: GGAUCUUCUCGAUCUAACAAAAAAGACAAAUCUGCCACAAAGCUUGAGCGCAUGUUCGGAUGCAGAGGCGGCAGCCUUUGGUGGCGCAAUAGCGGCAACGUUCUCAACUAUGACACGCAAAACGCGUGCUCCGUUGAAUGGAGUUUAUCAUG [A49C C54G C79U G88A C95G]
Second: GGAUCUUCUCGAUCUAACAAAAAAGACAAAUCUGCCACAAAGCUUGAUAGCAUCUUCGGAUGCAGAGGCGGCAGCCUUCGGUGGCGCGAUAGUGACGUCGUUCUCAACUAUGACACCCAAAACGCGUGCUCCGUUGAAUGGAGUUUAUCAUG [G48U C93U C95A A97G A98U G117C]
The “polymerase ribozyme fitness (log ratio)” value of the first is lower: ≤ -4.2 for the first, -3.43 for the second.

GGAUCUUCUCGAUCUAACAAAAAAGACAAAUCUGCCACAAAGCUUGACAGCAUCUUCUGAUGCAGAGGCGGCAGCCUUCGGUGGCGCGAUAGCGCCAACGUUCUGAACUAUGAGACGCAAAACGCGUGCUCCGUCGAAUGGAGUUUAUCAUG [G48C G58U C105G C114G U135C] and GGAUCUUCUCGAUCUAACAAAAAAGACAAAUCUGCCACAAAGCUUGAGCGCAUAUUCGGAUGCAGAGGCGGCAGCCUUCGGUGGCGCGAUAGCGCCAACGUUCUCAACUAUGACACGCAAAACGCGUGCUCCGUUGAAUGGAGUUUAUCAUG [A49C C54A] cannot be ordered by “polymerase ribozyme fitness (log ratio)” value: ≤ -4.2 for the first, ≤ -4.2 for the second.

GGAUCUUCUCGAUCUAACAAAAAAGACAAAUCUGCCACAAAGCUUGAGCGCAUCUUCGGAUGCAGUGGCGGCAGGCUUCGGUGGCGGGAUAGAGCCAGCGUUCUCAACUAUGACUCGCAAAACGCGGGCUCCGUUGAAUGGAGUUUAUCAUC [A49C A66U C75G C87G C93A A98G A115U U127G G152C] and GGAUCUUCUCGAUCUAACAAAAAAGACAAAUCUGCCACAAAGCUUGAUAGCAUCUUUCGAUCCAGAAGCGGCAGCCUUCGGAGGCACGAUAGCGCCAACGUUCUCAACUAUGACACGCAAAACGCGUGCUCCGUUGAAUGGAGUUUAUCAUG [G48U C57U G58C G62C G67A U82A G86A] cannot be ordered by “polymerase ribozyme fitness (log ratio)” value: ≤ -4.2 for the first, ≤ -4.2 for the second.

First: GGAUCUUCUCGAUCUAACAAAAAAGACAAAUCUGCCACAAAGCUUGAUAGCAUCUUCGGAUGCAGAGGCGGCAGCCUUCGGUGGCGCGAUAGAGCCAACGUUCUCAACUAUGACACGCAAAACGCGUGCUCCGUUGAAUGGAGUUUAUCAUG [G48U C93A]
Second: GGAUCUUCUCGAUCUAACAAAAAAGACAAAUCUGCCACAAAGCUUGAUAGCAUCUUCGGAUGCAGAGGCGGCAGCCUUCGGUGGCGCGAUAGCGUCAACGUUCUCAACUAUGACACGCAAAACGCGUGCUCCGUUGAAUGGAGUUUAUCAUG [G48U C95U]
The “polymerase ribozyme fitness (log ratio)” value of the first is lower: -2.5 for the first, -1.01 for the second.

In the case of GGAUCUUCUCGAUCUAACAAAAAAGACAAAUCUGCCACAAAGCUUGAGCGCGUCUUCGGAUGCAGAGGCGGCAGCCUUCGGUGGCGCGAUAGUGCCAACGUUCUCAACUAUGACACGCUAAACGCGUGCUCCGUUGAAUGGAGUUUAUCAUG [A49C A52G C93U A119U], the “polymerase ribozyme fitness (log ratio)” value is reported as ≤ -4.2.
